The text below walks through data of paper PMC10786891, “Massively parallel profiling of RNA-targeting CRISPR-Cas13d”.

Usually Kd stands for the free concentration of one partner at which half of the binding sites on the other are occupied at equilibrium, for simple one-to-one binding.

The chains are these.
T1: EsCas13d, nuclease-dead (Eubacterium siraeum, UniProt B0MS50, R295A;H300A;R849A;H854A)
T1 sequence: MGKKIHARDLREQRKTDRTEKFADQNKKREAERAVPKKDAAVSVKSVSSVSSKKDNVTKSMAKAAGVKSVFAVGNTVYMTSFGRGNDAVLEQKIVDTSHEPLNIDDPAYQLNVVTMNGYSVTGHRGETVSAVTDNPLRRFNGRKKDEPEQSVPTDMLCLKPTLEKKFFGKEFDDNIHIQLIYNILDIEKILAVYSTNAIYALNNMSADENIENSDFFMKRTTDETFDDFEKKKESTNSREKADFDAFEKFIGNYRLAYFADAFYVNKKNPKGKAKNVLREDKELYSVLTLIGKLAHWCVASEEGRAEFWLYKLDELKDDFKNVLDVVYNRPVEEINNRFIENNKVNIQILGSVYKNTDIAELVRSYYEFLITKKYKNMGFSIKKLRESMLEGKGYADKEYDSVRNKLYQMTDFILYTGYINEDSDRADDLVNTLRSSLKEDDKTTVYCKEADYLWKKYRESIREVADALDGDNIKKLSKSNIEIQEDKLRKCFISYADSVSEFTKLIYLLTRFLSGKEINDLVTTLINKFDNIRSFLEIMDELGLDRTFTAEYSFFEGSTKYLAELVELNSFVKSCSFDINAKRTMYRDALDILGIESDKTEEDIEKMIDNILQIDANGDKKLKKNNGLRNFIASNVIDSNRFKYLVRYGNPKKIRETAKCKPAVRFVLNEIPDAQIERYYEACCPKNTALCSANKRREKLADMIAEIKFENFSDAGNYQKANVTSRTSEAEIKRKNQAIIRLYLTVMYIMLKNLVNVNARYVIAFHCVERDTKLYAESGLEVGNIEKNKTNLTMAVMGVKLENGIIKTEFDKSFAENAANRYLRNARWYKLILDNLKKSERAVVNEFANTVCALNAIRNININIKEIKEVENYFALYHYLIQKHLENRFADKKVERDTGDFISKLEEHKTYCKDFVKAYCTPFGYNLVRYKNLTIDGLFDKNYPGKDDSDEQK

B1: target 1 MT 5'PFS GGG 3'PFS CCG (mixed)
RNA 1: CACCCGUGCAAAAAUGCAGGGGUCUAAAACUGAGCGGAUAACCUCUCUAUGG
RNA 2: GGGAAUGGAUCCACAUCUACGAAUUCGGGCCAUAGAGAGGUUAUCCGCUCACCGAGAUCGGAAGAGCACACGU
B2: target 1 MT 5'PFS GCU 3'PFS AAU (mixed)
RNA 1: B1 RNA 1
RNA 2: B1 RNA 2 with G28C, G29U, C52A, C53A, G54U
B3: target 1 MT 5'PFS GCU 3'PFS AAC (mixed)
RNA 1: B1 RNA 1
RNA 2: B1 RNA 2 with G28C, G29U, C52A, C53A, G54C
B4: target 1 MT 5'PFS GGA 3'PFS CAU (mixed)
RNA 1: B1 RNA 1
RNA 2: B1 RNA 2 with G29A, C53A, G54U
B5: target 1 A9G,U10G (mixed)
RNA 1: B1 RNA 1
RNA 2: B1 RNA 2 with G28U, G29A, U42G, A43G
B6: target 1 MT 5'PFS CUU 3'PFS UCU (mixed)
RNA 1: B1 RNA 1
RNA 2: B1 RNA 2 with G27C, G28U, G29U, C52U, G54U
B7: target 1 insC 3' of 16,insA 3' of 4 (mixed)
RNA 1: B1 RNA 1
RNA 2: GGGAAUGGAUCCACAUCUACGAAUUCGUACCAUAGACGAGGUUAUCCGCAUCACCGAGAUCGGAAGAGCACACGU
B8: target 1 MT 5'PFS UCA 3'PFS UGU (mixed)
RNA 1: B1 RNA 1
RNA 2: B1 RNA 2 with G27U, G28C, G29A, C52U, C53G, G54U
B9: target 1 MT 5'PFS CUU 3'PFS AAA (mixed)
RNA 1: B1 RNA 1
RNA 2: B1 RNA 2 with G27C, G28U, G29U, C52A, C53A, G54A
B10: target 1 MT 5'PFS UGC 3'PFS CCC (mixed)
RNA 1: B1 RNA 1
RNA 2: B1 RNA 2 with G27U, G29C, G54C
B11: target 1 MT 5'PFS GGG 3'PFS CCU (mixed)
RNA 1: B1 RNA 1
RNA 2: B1 RNA 2 with G54U
B12: target 1 MT 5'PFS UGC 3'PFS CCU (mixed)
RNA 1: B1 RNA 1
RNA 2: B1 RNA 2 with G27U, G29C, G54U
B13: target 1 MT 5'PFS GGG 3'PFS CCC (mixed)
RNA 1: B1 RNA 1
RNA 2: B1 RNA 2 with G54C
B14: target 1 MT 5'PFS GGG 3'PFS ACC (mixed)
RNA 1: B1 RNA 1
RNA 2: B1 RNA 2 with C52A, G54C
B15: target 1 MT 5'PFS GCU 3'PFS UGC (mixed)
RNA 1: B1 RNA 1
RNA 2: B1 RNA 2 with G28C, G29U, C52U, C53G, G54C
B16: target 1 MT 5'PFS GCU 3'PFS UGA (mixed)
RNA 1: B1 RNA 1
RNA 2: B1 RNA 2 with G28C, G29U, C52U, C53G, G54A
B17: target 1 MT 5'PFS GUC 3'PFS UUU (mixed)
RNA 1: B1 RNA 1
RNA 2: B1 RNA 2 with G28U, G29C, C52U, C53U, G54U

Changes are numbered by the printed parent chain. Names and notes keep the numbering of the source.

This data set deals with T1, EsCas13d, nuclease-dead. As to the kind of experiment: crRNA (strand 1, pre-loaded); Mg2+; 40 mM Tris-HCl pH 7.5, 150 mM NaCl, 6 mM MgCl2, 1 mM DTT, 0.1% Tween-20, 0.2 mg/ml BSA; 25 C; 10 min per concentration, then washed. As to conditions: tags: His6-TwinStrep-SUMO cleaved; N-terminal SNAP kept (SNAP-Surface 488); label: 3' end held by stalled T7 RNA polymerase.
As to B1, the Kd was 15.1 ± 3.45 nM.
For B2 the value was around 82.5 nM; for B3, around 80 nM; for B4, 50.5 ± 18 nM.
B5 came in with a Kd of 37 ± 4 nM.
Next, B6: 30.5 ± 9 nM; B7: 38 ± 17 nM.
Next, B8: 28.5 ± 5 nM.
For B9 the value was around 70 nM; for B10, around 23 nM.
In turn, B11 displayed a Kd of 18.5 ± 7 nM.
In turn, B12 registered a Kd of 15.5 ± 4.5 nM.
In turn, B13 yielded a Kd of around 50 nM.
Next, B14: 25.5 ± 8.5 nM; B15: 38 ± 7 nM; B16: 100 ± 40 nM.
Take B17: the Kd was found to be 15.1 ± 4.3 nM.
